# Assay results reported in IntAct's records for PubMed 17259181.
# B1: Zinc finger protein ZAT7 (Arabidopsis thaliana (Mouse-ear cress)), Q42453 (parent)
# chain: MVARSEEIVIVEEDTTAKCLMLLSRVGECGGGCGGDERVFRCKTCLKEFSSFQALGGHRASHKKLINSDNPSLLGSLSNKKTKTSHPCPICGVKFPMGQALGGHMRRHRNEKVSGSLVTRSFLPETTTVTALKKFSSGKRVACLDLDLDSMESLVNWKLELGRTISWS
# partner: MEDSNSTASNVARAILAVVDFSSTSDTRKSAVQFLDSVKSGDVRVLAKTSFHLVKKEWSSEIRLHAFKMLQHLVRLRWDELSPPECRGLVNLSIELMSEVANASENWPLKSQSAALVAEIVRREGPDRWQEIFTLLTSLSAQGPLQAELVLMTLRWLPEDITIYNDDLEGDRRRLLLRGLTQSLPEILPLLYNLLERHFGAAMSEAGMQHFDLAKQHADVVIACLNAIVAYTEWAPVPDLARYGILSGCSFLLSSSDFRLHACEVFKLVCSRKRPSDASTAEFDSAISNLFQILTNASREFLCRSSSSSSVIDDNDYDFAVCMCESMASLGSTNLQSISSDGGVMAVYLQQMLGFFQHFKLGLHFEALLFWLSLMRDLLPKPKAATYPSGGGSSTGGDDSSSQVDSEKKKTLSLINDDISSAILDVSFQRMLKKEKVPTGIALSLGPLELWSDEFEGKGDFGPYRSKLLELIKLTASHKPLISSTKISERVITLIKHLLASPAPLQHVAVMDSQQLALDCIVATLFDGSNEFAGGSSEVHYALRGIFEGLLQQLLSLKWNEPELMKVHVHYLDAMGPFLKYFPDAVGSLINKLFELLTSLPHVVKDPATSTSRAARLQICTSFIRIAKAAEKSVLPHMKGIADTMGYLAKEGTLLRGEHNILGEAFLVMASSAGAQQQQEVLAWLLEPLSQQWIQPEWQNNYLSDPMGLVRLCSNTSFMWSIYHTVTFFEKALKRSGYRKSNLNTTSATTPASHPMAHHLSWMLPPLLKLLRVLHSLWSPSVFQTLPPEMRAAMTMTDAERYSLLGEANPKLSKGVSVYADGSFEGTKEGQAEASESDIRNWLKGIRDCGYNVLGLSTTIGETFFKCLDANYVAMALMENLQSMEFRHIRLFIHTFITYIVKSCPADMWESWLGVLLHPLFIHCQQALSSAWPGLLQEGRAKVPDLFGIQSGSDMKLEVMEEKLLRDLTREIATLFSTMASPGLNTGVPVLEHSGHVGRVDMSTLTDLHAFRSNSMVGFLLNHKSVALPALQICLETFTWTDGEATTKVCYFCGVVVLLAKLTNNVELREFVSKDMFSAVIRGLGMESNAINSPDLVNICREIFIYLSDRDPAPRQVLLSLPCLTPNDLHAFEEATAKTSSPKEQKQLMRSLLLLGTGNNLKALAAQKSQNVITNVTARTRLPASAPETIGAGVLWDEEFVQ
# Variants of: B1
# Details: with hasty_arath HST1, Q0WP44
row,effect of a mutation on the interaction,Variant
1,disrupting interaction,D145A;L146A;D147A
